Test results reported in patent US10717774B2, “Compositions and methods for treating cancers” (Kiromic, Inc., priority 2016, dated 2020).

Assays:
Type in all cases: cell-based, human
[1] = system: ovarian cancer cell line SKOV3; assay: Detection of apoptosis (Annexin-V FITC / propidium iodide flow cytometry) in SKOV3; details: for apoptotic rate of SKOV3 cells: 20 μg/mL 48 hours, combined with Paclitaxel (Pax) 100 nM for the last 24 hours, compared with Paclitaxel alone
Description: (§1) The human multiple myeloma cell line U266, ovarian cancer cell line SKOV3, and acute monocytic leukemia cell line THP1 were cultured in RPMI 1640 with 10% FBS. The breast cancer cell line MCF7 was cultured in Dulbecco's modified Eagle's medium (DMEM) with 10% FBS. Drugs were purchased from Merck Millipore and used at the following concentrations: Bortezomib (Bor) 5 nM; Cytarabine (Ara-c) 3.87 μM; Rapamycin (Rapa) 100 nM; Paclitaxel (Pax) 100 nM.
Cells were seeded in 48-well at the same concentrations for the MTT assay. The cells were treated with CBPI1 or CBPI2 at 20 μg/mL for 48 hours. For the last 24 hours, the appropriate drugs were added. After 48 hours, the cells were washed with cold 1×PBS, resuspended in “Binding buffer 1×” (i.e., HEPES 0.01M; NaCl 0.14M; and CaCl2 2.5 mM) and incubated for 15 minutes with Annexin-V FITC (BD Biosciences)+Propidium Iodide (2.5 μg/mL final; Sigma-Aldrich) in the dark. Finally, 400 μL of Binding Buffer 1× were added to the tube and samples were processed and analyzed using the BD FACSVerse™ System (BD Biosciences).
(§2) Data are represented as means±SD from at least three (3) independent experiments. ***^=P<0.001; **^=P<0.01; *^=P<0.05.
FIG. 6—After the indicated treatments, the cells were analyzed for apoptosis by flow-cytometry. Plots represent the relative of fluorescence intensities in the green (FL1, horizontal axis) and red (FL2, vertical axis) channels. The apoptosis detector, Annexin-V, is linked to a green fluorescent molecule (FITC), and produces a fluorescent signal in the FL1 channel. Cells in late apoptosis are unable to pump propidium iodide (PI) out of the cytoplasm, and are therefore red fluorescent. Red fluorescence is thus picked up by the flow-cytometer in the FL2 channel. Each dot represents a fluorescent signal (cell), detected by the flow-cytometer. Each dot-plot is divided into 4 quadrants. From bottom-left and proceeding counter-clockwise, these are Q1, Q2, Q3, and Q4. […]

[2] = system: multiple myeloma cell line U266; assay: MTT assay in U266; details: protein alone, 20 μg/mL, 48 hours
Description: as §1
(§3) Cells were seeded in 96-well plates, at a volume of 100 μL cell suspension/well, in quadruplicate. SKOV3 and MCF7 cells were seeded at a density of 100,000 cells/mL. THP1 cells were seeded at a density of at 200,000 cells/mL; whereas, U266 cells were seeded at a density of 300,000 cells/mL. Cells were then treated with CBPI1 or CBPI2 at 20 μg/mL for 48 hours. For the last 24 hours, the appropriate drugs were added. Cell viability was subsequently assayed after 48 hours of incubation with 0.6 mg/mL MTT ((3-(4,5-dimethylthiazolyl-2)-2,5-diphenyltetrazolium bromide; Sigma-Aldrich) for 4 hours. Formazan crystals were dissolved in […] 0.01N HCL/isopropanol. Specific absorbance was measured at 570 nm with subtraction of background at 690 nm.
as §2

[3] = system: ovarian cancer cell line SKOV3; assay: MTT assay in SKOV3; details: for combined effect with Pax compared to Paclitaxel alone by MTT assay: 20 μg/mL 48 hours plus Paclitaxel 100 nM for the last 24 hours; for viability of metabolically-active cells (MTT): protein alone, 20 μg/mL, 48 hours, compared to the control cells
Description: as §1, §3, §2

[4] = system: breast cancer cell line MCF7; assay: Detection of apoptosis (Annexin-V FITC / propidium iodide flow cytometry) in MCF7; details: protein alone, 20 μg/mL, 48 hours; compared to the control cells
Description: as §1
(§4) Cells were seeded in 48-well at the same concentrations for the MTT assay. The cells were treated with CBPI1 or CBPI2 at 20 μg/mL for 48 hours. For the last 24 hours, the appropriate drugs were added. […] Finally, 400 μL of Binding Buffer 1× were added to the tube and samples were processed and analyzed using the BD FACSVerse™ System (BD Biosciences). […]
(§5) FIG. 6—After the indicated treatments, the cells were analyzed for apoptosis by flow-cytometry. Plots represent the relative of fluorescence intensities in the green (FL1, horizontal axis) and red (FL2, vertical axis) channels. […] Red fluorescence is thus picked up by the flow-cytometer in the FL2 channel. Each dot represents a fluorescent signal (cell), detected by the flow-cytometer. […]

[5] = system: breast cancer cell line MCF7; assay: MTT assay in MCF7; details: protein alone, 20 μg/mL, 48 hours
Description: as §1, §3, §2

[6] = system: acute monocytic leukemia cell line THP1; assay: MTT assay in THP1; details: protein alone, 20 μg/mL, 48 hours
Description: as §1, §3, §2

[7] = system: acute monocytic leukemia cell line THP1; assay: Detection of apoptosis (Annexin-V FITC / propidium iodide flow cytometry) in THP1; details: 20 μg/mL 48 hours, in combination with Ara-C 3.87 μM for the last 24 hours; compared to the control cells
Description: as §1, §4, §5

[8] = system: multiple myeloma cell line U266; assay: Detection of apoptosis (Annexin-V FITC / propidium iodide flow cytometry) in U266; details: 20 μg/mL 48 hours, combined with Bortezomib (Bor) 5 nM for the last 24 hours; compared with Bor alone
Description: as §1, §4, §5

B1: CBPI2: novel Gal-3 N-terminal truncation protein, deletes amino acids 1-112, substitutions P113A, L114V, Y118N, and T248N (protein)
chain: AVIVPNNLPLPGGVVPRMLITILGTVKPNANRIALDFQRGNDVAFHFNPRFNENNRRVIVCNTKLDNNWGREERQSVFPFESGKPFKIQVLVEPDHFKVAVNDAHLLQYNHRVKKLNEISKLGISGDIDLTSASYNMI
- apoptotic rate of SKOV3 cells [1]: significantly increase
- apoptosis in ovarian cancer cells ([1]; protein alone, 20 μg/mL, 48 hours, SKOV3): effective in causing apoptosis
- viability of metabolically-active cells (MTT) [2]: significantly decrease
- combined effect with Pax compared to Paclitaxel alone by MTT assay [3]: not evident
- viability of metabolically-active cells (MTT) [3]: significantly decrease
- MCF7 cells apoptotic rate [4]: significantly increases
- viability of metabolically-active cells (MTT) [5]: significantly decreases
- viability of metabolically-active cells (MTT) [6]: significantly decreases
- apoptotic rate of THP1 cells [7]: significantly increase
- U266 cells apoptosis rate [8]: significantly increase

B2: CBPI1: novel Gal-3 N-terminal truncation protein, identical in sequence to native Gal-3 amino acids 109-250 (protein)
chain: APAGPLIVPYNLPLPGGVVPRMLITILGTVKPNANRIALDFQRGNDVAFHFNPRFNENNRRVIVCNTKLDNNWGREERQSVFPFESGKPFKIQVLVEPDHFKVAVNDAHLLQYNHRVKKLNEISKLGISGDIDLTSASYTMI
- apoptotic rate of SKOV3 cells [1]: significantly increase
- viability of metabolically-active cells (MTT) [2]: significantly decrease
- combined effect with Pax compared to Paclitaxel alone by MTT assay [3]: not evident
- viability of metabolically-active cells (MTT) [3]: significantly decrease
- apoptotic rate of THP1 cells [7]: significantly increase
